According to patent US20190284299A1 (published 2019):
Blank lines part the entries; values can stand above or below the binder they belong to.

Target: T1, recombinant human Trop-2 (Sino Biological, Cat. No: 10428-H08H) (human, UniProt P09758 27-274)
T1 chain: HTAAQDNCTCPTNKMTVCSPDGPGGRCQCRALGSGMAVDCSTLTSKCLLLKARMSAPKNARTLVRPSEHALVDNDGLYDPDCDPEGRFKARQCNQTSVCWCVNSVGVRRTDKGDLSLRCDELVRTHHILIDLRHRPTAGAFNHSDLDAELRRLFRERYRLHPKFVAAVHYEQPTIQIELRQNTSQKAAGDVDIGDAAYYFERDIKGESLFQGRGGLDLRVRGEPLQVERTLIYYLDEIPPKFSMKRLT
Assay: ELISA

EC50: 0.28 nM
B1: heterodimeric anti-Trop-2/anti-CD3-scFv bispecific antibody (bispecific antibody)
heavy: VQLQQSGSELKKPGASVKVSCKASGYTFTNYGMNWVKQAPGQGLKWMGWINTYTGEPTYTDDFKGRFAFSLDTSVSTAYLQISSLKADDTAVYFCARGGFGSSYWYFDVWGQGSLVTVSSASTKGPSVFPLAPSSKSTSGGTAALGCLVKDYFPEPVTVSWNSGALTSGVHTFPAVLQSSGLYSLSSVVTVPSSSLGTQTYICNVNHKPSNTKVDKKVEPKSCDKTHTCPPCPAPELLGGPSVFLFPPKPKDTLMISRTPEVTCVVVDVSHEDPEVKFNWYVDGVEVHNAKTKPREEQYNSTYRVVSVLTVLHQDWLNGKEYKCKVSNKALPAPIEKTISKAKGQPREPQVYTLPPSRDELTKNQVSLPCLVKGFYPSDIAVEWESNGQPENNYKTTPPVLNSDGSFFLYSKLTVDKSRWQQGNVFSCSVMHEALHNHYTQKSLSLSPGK
light: DIQLTQSPSSLSASVGDRVSITCKASQDVSIAVAWYQQKPGKAPKLLIYSASYRYTGVPDRFSGSGSGTDFTLTISSLQPEDFAVYYCQQHYITPLTFGAGTKVEIKRTVAAPSVFIFPPSDEQLKSGTASVVCLLNNFYPREAKVQWKVDNALQSGNSQESVTEQDSKDSTYSLSSTLTLSKADYEKHKVYACEVTHQGLSSPVTKSFNRGEC
scFv: not shown

EC50: 0.081 nM
B2: Anti-Trop-2 mAb (antibody, V domains shown)
VH: VQLQQSGSELKKPGASVKVSCKASGYTFTNYGMNWVKQAPGQGLKWMGWINTYTGEPTYTDDFKGRFAFSLDTSVSTAYLQISSLKADDTAVYFCARGGFGSSYWYFDVWGQGSLVTVSS
VL: DIQLTQSPSSLSASVGDRVSITCKASQDVSIAVAWYQQKPGKAPKLLIYSASYRYTGVPDRFSGSGSGTDFTLTISSLQPEDFAVYYCQQHYITPLTFGAGTKV
